Experimental data from the supplement of paper PMC9170038.

Test system: MS2 coat protein
Experiment: apparent KD of MS2 coat protein; designed switch direction (-1 OFF switch, 1 ON switch): -1; higher = weaker reporter binding
Method in brief: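 Designed RNA switches were transcribed on Illumina chips by stalled E. coli RNA polymerase and titrated with SNAP-549-labelled MS2 coat protein from 0.7 or 1.5 nM, doubling to 3 µM. Step length ran from 0.8–1.5 h at the lowest concentration to 10–20 min at the highest. The apparent KD is the median over clusters for each design, from curve-fitted normalised cluster fluorescence.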

[1] = input ligand: microRNA oligo, concentration not stated
[2] = Eterna round: R95, input ligand: microRNA oligo, concentration not stated
[3] = Eterna round: R95, input ligand: FMN 200 uM
[4] = Eterna round: R95, input ligand: none

Row | Sequence | apparent KD of MS2 coat protein (input ligand: FMN 200 uM) [µM] | apparent KD of MS2 coat protein [1] [µM] | apparent KD of MS2 coat protein (input ligand: none) [µM] | apparent KD of MS2 coat protein [2] [µM] | apparent KD of MS2 coat protein [3] [µM] | apparent KD of MS2 coat protein [4] [µM]
1 | AGAUGCUUAAGUCGACAUGAGGAUCACCCAUGUACAGUUAACGAGGAUAUCCGAAAUAAAUAAUAGGAGAAGGCGUGAUCAUGA [Ex NG3 #1] (Eterna round: R96, puzzle: Exclusion NG 3) | 0.0824 | 0.145 | 0.307 |  |  | 
2 | AUCUGCACGCUGCGGUCCUACAUGAGGAUCACCCAUGUGGUCUGGUGGCGUGGGUCGCCGGACUUGGCUCGUCUUGG [salish99_S_TOV1_R5_050] (Eterna round: R97, puzzle: Sensor, turn-off variant 1) | 0.0154 |  | 0.0152 |  |  | 
3 | UAAAAGUCAGGAUAUGCGAGAGAUUGAAGUGUGGCAAGGUAGCAGAAGGGACAUGAGGAUCACCCAUGUGUGGC [JR_Exclu4_Sub096] (puzzle: Exclusion 4) |  |  |  | 0.049 |  | 
4 | GCAGCAACUCUAAUCAAACUAACAUGAGGAUCACCCAUGUCUCAGGAUAUGGUCUGGAUUACAGGCCAGAAGGGAGAAAGCUGC [Eli exng3 - 049] (Eterna round: R96, puzzle: Exclusion NG 3) | 0.00904 | 0.0104 | 0.0148 |  |  | 
5 | ACACAACAUGAGGAUCACCCAUGUCAGGAUAUGCAGAACAAGAACAAGACAAGACAGAGCAGAAGGGACAACAC [Ex 1 M5] (Eterna round: R96, puzzle: Exclusion 1) | 0.049 | 0.0296 | 0.0363 |  |  | 
6 | GCGUACUGAGGAUAUACAUGAGGAUCACCCAUGUGACUAAGAUUUUAGUGAUGAUUUUGUAGAAGGCAGUAUGC [JR_Ex3_Sub061] (Eterna round: R97, puzzle: Exclusion 3) | 0.344 |  | 0.0914 |  |  | 
7 | AAAAGCUUUUUAAAAAAAAACAUGAGGAUCACCCAUGUUAAAAAAUAUAAGGUGAUAAAAAAUUGUCAAAAAAAAAA [Jieuxbot 008 - Jieux - Sensor v2, turn-off variant] (Eterna round: R96, puzzle: Sensor v2, turn-off variant) | 0.129 | 0.148 | 0.108 |  |  | 
8 | GCAGAAAGUGUAGGAUAUAUAAUAAAGCGGAAACGCAAGACAUGAGGAUCACCCAUGUGUCCGGAAUAGAAGGGCAAAAGCUGC [EXNG2 V2 b] (Eterna round: R96, puzzle: Exclusion NG 2) | 0.0291 | 0.0199 | 0.0294 |  |  | 
9 | CUCCGGCGUGUAGGAUAUGGAUCCGAUUAGGAUCCAGAAGGACAUGAGGAUCACCCAUGUACAUGUCGUCGGUCGUCACCGGGC [salish99_ExNG1_r04_210] (Eterna round: R96, puzzle: Exclusion NG 1) | 0.0527 | 0.0222 | 0.0322 |  |  | 
10 | CUGCUCCGUGUAGGAUAUGCAUACUCCCAUUAUGCAGAAGGACAUGAGGAUCACCCAUGUAUGUUAUUAUCACGUGUUGCGUAC [Design 14] (Eterna round: R96, puzzle: Exclusion NG 1) |  | 0.02 |  |  |  | 
11 | GACCUAUAGGUAGGAUAUCAUUGCGAUUAGCUAUGAGAAGGACCACAUGAGGAUCACCCAUGUCCUCCAAUUAACCGAAAGGUC [Fiskers ExNg1 - 3] (Eterna round: R96, puzzle: Exclusion NG 1) | 0.0449 | 0.0219 | 0.0301 |  |  | 
12 | CAGAGCAGACGGAGAUCCAACAUGAGGAUCACCCAUGUCUCAAAAGCUUUUUGCUUGUCUUAUCCUCCUCUGUUCAC [Esquitian 2] (Eterna round: R97, puzzle: Sensor, turn-off variant 1) | 0.0183 |  | 0.0174 |  |  | 
13 | UUAAUUAAUUGCGCAAGAUCACAUGAGGAUCACCCAUGUAUAUAGGAUAUCAGCUCGUUUAGAGCUGAGAAGGAUAUACAGCGC [ExNG3/3-A2] (Eterna round: R96, puzzle: Exclusion NG 3) | 1.32 | 0.536 | 0.488 |  |  | 
14 | AUUAAACAUGUAGGAUAUGCGUGGCGAAGCUAUGCAGAAGGACAUGAGGAUCACCCAUGUUUUAGCGUCUGCGUACAGAUGCAA [JL ENG1 1.38] (Eterna round: R96, puzzle: Exclusion NG 1) | 0.218 | 0.0178 | 0.0303 |  |  | 
15 | GCCGAAAGCGUAGGAUAUCGAAUAAAGCGGAAACGCAAGACAUGAGGAUCACCCAUGUGUCCGGACGAGAAGGGCGAAAGCGGC [EXNG2 V2 a] (Eterna round: R96, puzzle: Exclusion NG 2) | 0.0334 | 0.0271 | 0.0343 |  |  | 
16 | CAGUGACAUGAGGAUCACCCAUGUCAGGAUAUCUGUACCAUCCGACGGAGGUCCAGACAGAGAAGGGACUUGGG [Eternabot (L1) Solution 31] (Eterna round: R97, puzzle: Exclusion 1) | 0.0769 |  | 0.0499 |  |  | 
17 | GUUAGACAUGAGGAUCACCCAUGUGAGGAUAUGAUGCGAAUAAAGAAUGAAGUAAGCAUCAGAAGGCACAUAUG [Mat - Mod of Hyphema D30] (puzzle: Exclusion 1) |  |  |  | 0.235 |  | 

Row | Sequence | apparent KD of MS2 coat protein (input ligand: FMN 200 uM) [µM] | apparent KD of MS2 coat protein [1] [µM] | apparent KD of MS2 coat protein (input ligand: none) [µM] | apparent KD of MS2 coat protein [2] [µM] | apparent KD of MS2 coat protein [3] [µM] | apparent KD of MS2 coat protein [4] [µM]
18 | GUGGUACAUGAGGAUCACCCAUGUCAGGAUAUCGCGUGGUUUUUUGCGGCCGCGCGCGCGAGAAGGGACGUCUU (puzzle: Exclusion 1) |  |  |  | 0.0291 |  | 
19 | GUGCUAUAGGAAGGAUAUACUUCAUUGUUUAAACAUGAGGAUCACCCAUGUAACCUUAUGUAUGUGUAGAAGGUCCAUAGCUUA (Eterna round: R96, puzzle: Exclusion NG 2) | 0.0569 | 0.0251 | 0.0302 |  |  | 
20 | GAUCAUGCAGGAUAUACAUGGAUCAUGAAAACAUGAAUUUCACAUGAGGAUCACCCAUGUAGAAGGGCAUGAUC [Omei Ex2 A11] (Eterna round: R97, puzzle: Exclusion 2) | 0.0139 |  | 0.293 |  |  | 
21 | AAGCGCGUAGGAUAUACAUGAGGAUCACCCAUGUGAGGAAGGAGUUGGAAGUGUGGAAGUAGAAGGACGGAGUG [JR_Exclu3_Sub078] (puzzle: Exclusion 3) |  |  |  | 0.0443 | 0.0354 | 0.0417
22 | AAGAACGUGCAAGGAUAUCUCCACCAAACCGGCAGAGAAGGUGCACAUGAGGAUCACCCAUGUGACCUAAAGCUCUUAUGAGCC [Raledigeen] (Eterna round: R96, puzzle: Exclusion NG 1) | 0.0306 | 0.0131 | 0.0173 |  |  | 
23 | UCGCUGCGAGGAUAUACAUGAGGAUCACCCAUGUACGGGUCCGGGUCUAAGUUGAUAAGUAGAAGGCGCAGUGA [JL Laongeedie mod 12] (puzzle: Exclusion 3) |  |  |  | 0.114 |  | 
24 | CUGAGCUGAGGAUAUACAUGAGGAUCACCCAUGUGUUAGAGCUUGCGUACAGGCAGAUGUAGAAGGCAGUUCGG [JL-ex3-3.33 Brourd mod] (puzzle: Exclusion 3) |  |  |  | 0.0145 |  | 
25 | UUAAAUCAUGUAGGAUAUGCGUGGCGAAGCUAUGCAGAAGGACAUGAGGAUCACCCAUGUUCUUCCGUCUGCGUACAGAUGGAA [JL ENG1 1.08] (Eterna round: R96, puzzle: Exclusion NG 1) | 0.271 | 0.0338 | 0.0363 |  |  | 
26 | CUUUACAAGCUAAGAUCCUACAUGAGGAUCACCCAUGUGGUCCGGUGACGUGAGUCACCGGACUUAGCUCGUCUUGU [salish99_S_TOV1_R5_096] (Eterna round: R97, puzzle: Sensor, turn-off variant 1) | 0.0415 |  | 0.0426 |  |  | 
27 | CUCUUGUUAGGAUAUCAAACCGGCGGCGGAGCCACCGGAAGUGAGAAGGGACAUGAGGAUCACCCAUGUAAGAA [Islaariste] (puzzle: Exclusion 4) |  |  |  | 0.0609 | 0.22 | 0.0673
28 | UCCAAACAUGAGGAUCACCCAUGUGAGGAUAUGAUACUAUGUACUUCGGUACAUAGUAUCAGAAGGCACAUCCA [Ex1-3: 10] (puzzle: Exclusion 1) |  |  |  | 0.0134 |  | 
29 | CCCUGCAACUGAGGAUAUCACGGACACCGACGUUGAGAAGGCAGACAUGAGGAUCACCCAUGUGAUUUCUCAAUGCUAAACAUU (Eterna round: R96, puzzle: Exclusion NG 1) | 0.0664 | 0.0296 | 0.0368 |  |  | 
30 | UAAAUAAGUGUGAGGAUAUGCUGGUCCUUGGAUCAGCAGAAGGCACAUGAGGAUCACCCAUGUAAUAUAUUUAU [Mat - Exclusion 4 - JL Mod - D61] (puzzle: Brourd's mod of Exclusion 4) |  |  |  | 0.0681 |  | 
31 | GGCUGACAUGUAGGAUAUCUGCACGUUUAGUGCAGAGAAGGACAUGAGGAUCACCCAUGUAUAGCGACUUCGGUCGCAACAGCC [ENG1/2-A2] (Eterna round: R96, puzzle: Exclusion NG 1) | 0.115 | 0.0316 | 0.0483 |  |  | 
32 | UCGUUCCGUGUAGGAUAUUGGCCUGCUCUGGGUCGAGAAGGACAUGAGGAUCACCCAUGUAUGUUAUUAUCACGCGUGGCGCAU [Design 81] (Eterna round: R96, puzzle: Exclusion NG 1) | 0.0617 | 0.0229 | 0.0318 |  |  | 
33 | GGACCGAUUGUUAGGAUAUCGCACGGCUAGCCCAGCGAGAAGGGACAUGAGGAUCACCCAUGUGCGCUUAGCAC [Eternabot (L1) Solution 50] (Eterna round: R97, puzzle: Brourd's mod of Exclusion 4) | 0.156 |  | 0.155 |  |  | 
34 | GCACGGAGUGUAGGAUAUCUGUGCGAUUAGCUCAGAGAAGGACAUGAGGAUCACCCAUGUGUGUUCCAAACACAAAAUCCGUGC [Eli exng1 - 065] (Eterna round: R96, puzzle: Exclusion NG 1) | 0.0472 | 0.0128 | 0.018 |  |  | 
